Patent WO2001004159A1

Assays:
[1] = target: hPF4/heparin complex (human) (UniProt P02776); assay: ELISA, wells coated with hPF4/heparin complex
[2] = target: hPF4/heparin complex (human) (UniProt P02776); assay: ELISA (A405), KKO below 0.14 micrograms per milliliter
[3] = target: hPF4/heparin complex (human) (UniProt P02776); assay: cell-based or functional assay
[4] = target: platelet Fc receptor Fc-gamma RIIA (human) (UniProt P12318); assay: cell-based or functional assay
[5] = target: hPF4/heparin complex (human) (UniProt P02776); assay: ELISA, wells coated with hPF4 with or without heparin

Sequence of UniProt P02776 (P02776 32-101, one chain of several): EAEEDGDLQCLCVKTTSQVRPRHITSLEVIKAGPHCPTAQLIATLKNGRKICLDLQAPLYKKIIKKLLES
Sequence of UniProt P12318 (P12318 34-317, form in doubt): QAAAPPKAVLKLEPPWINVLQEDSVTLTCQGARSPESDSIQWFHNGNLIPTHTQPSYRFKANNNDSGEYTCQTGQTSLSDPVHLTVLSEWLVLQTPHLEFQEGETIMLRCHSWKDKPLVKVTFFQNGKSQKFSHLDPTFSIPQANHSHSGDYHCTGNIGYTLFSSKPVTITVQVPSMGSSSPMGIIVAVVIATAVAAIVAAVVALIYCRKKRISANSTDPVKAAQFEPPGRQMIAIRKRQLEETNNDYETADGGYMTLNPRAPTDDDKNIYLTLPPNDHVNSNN

## murine monoclonal antibody KKO
[1]
  EC50: 0.036 µg/mL
[2]
  ratio of binding to PF4/heparin complex vs. binding to PF4 alone: > 400
[3]
  KKO concentration required to initiate 14C-serotonin release (micrograms per milliliter): > 180
[4]
  14C-serotonin release induced by KKO in the presence of the FcγRIIA-specific mAb IV.3: < 5 % release
[5]
  A405 ratio to hPF4/heparin complex versus hPF4 alone: > 30
